Consider three proteins from patent US20240209039A1 (RIKEN, published 2024).

Residue numbers refer to the chain shown, from its start. Names and notes keep the numbering of the source.

Data set [1] concerns the molecule itself. Put plainly: pseudo-native PAGE, self-association (homodimer), FIG. 17.
Data set [2] deals with the molecule itself. The experiment in a line: pseudo-native PAGE (10% acrylamide, 0.1% SDS, no heat treatment), self-association. The procedure:
After purification of the proteins with use of Ni-NTA, pseudo-native PAGE was carried out. The separation gel contained 10% acrylamide and 0.1% SDS. The sample buffer contained 2% SDS and 100 mM DTT. No heat treatment was carried out.

B1: StayGold (CU17S/V168A mutant) (other)
chain: MASTPFKFQLKGTINGKSFTVEGEGEGNSHEGSHKGKYVCTSGKLPMSWAALGTSFGYGMKYYTKYPSGLKNWFHEVMPEGFTYDRHIQYKGDGSIHAKHQHFMKNGTYHNIVEFTGQDFKENSPVLTGDMNVSLPNEVQHIPRDDGVECPVTLLYPLLSDKSKCVEAHQNTICKPLHNQPAPDVPYHWIRKQYTQSKDDTEERDHICQSETLEAHL
notes: Made in E. coli JM109 (DE3) and purified on Ni-NTA; also called StayGold (dimer); not shown: N-terminal histidine tag from the pRSETB vector (purified on Ni-NTA)
With B1, in data set [1], the binding result was “binds”.

B2: StayGold Y187A (other)
chain: B1 chain with Y187A
notes: not shown: histidine tag implied by Ni-NTA purification
On to B2, for which the binding result in data set [2] is “no binding”.

B3: StayGold L155T (other)
chain: B1 chain with L155T
notes: as for B2
Regarding B3, the binding result in data set [2] is recorded as “no binding”.
